Data published in the supplement of paper PMC12042874.
± gives the uncertainty stated by the source.

Test: amyloid nucleation score (Sup35N fusion, yeast selection) (log enrichment); library NNK1; higher = more nucleation; inactive = no reads after selection
How it was run: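 Psi-negative yeast expressed Sup35N fused to peptides of 20 random codons. They were induced 24 hours with 100 μM copper sulfate, grown 7 days at 30°C without adenine and uracil, and their plasmid inserts from input and output were Illumina-sequenced. The nucleation score is the DiMSum log enrichment of output over input reads, centred on the mode score of non-aggregating sequences. Sequences with under 100 input reads were excluded.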

| Substance | amyloid nucleation score |
| --- | --- |
| VQFLLYSGFVQTILMPKASR | 3.02 ± 0.15 |
| AYFRGRVNFSLTFLAYT | -0.098 ± 0.56 |
| DGFMCFLYKLASQT | 0.158 ± 0.78 |
| WCVFSLLKCINSLAQHFKGS | inactive |
| IGSSHRNSLVCVVEDENIQI | 1.01 ± 0.5 |
| SIFLSNILNDTWFLSALSCM | -1.41 ± 0.53 |
| WFVKLNFLCLCVNMDWHSTY | 0.352 ± 0.28 |
| QMTKNYEWDSTRIACVGLHR | 2.68 ± 0.11 |
| RVLIRYQV | 0.345 ± 0.58 |
| MHRGDVMRSSWNHDGVGTVR | 0.048 ± 1.2 |
| RLRLWFVASRMVDKGSGLNV | 0.67 ± 0.49 |
| VRWNWSGPNELYLRLFCRLP | -0.508 ± 0.39 |
| MHCLGLAWALELVSLLC | -0.374 ± 0.77 |
| DSIMNGR | 0.713 ± 0.74 |
| FMSNIDLFTGFLRDMWFIIF | -0.312 ± 0.55 |
| PSSIWNAMFYGYNCMYLLKT | -0.392 ± 0.34 |
| SNILFLYRMKRALPNSSWEA | 0.152 ± 0.48 |
| SYIPSISAALYFVLVMRHWL | -0.627 ± 0.49 |
| RDCPGL | -0.95 ± 2.7 |
| FNYIFRWLVMGTGSCTGS | 0.45 ± 0.29 |
| VLYGGDLALLSFDTGHPLFL | 0.297 ± 0.38 |
| GALGWWSSFVCEEAGKLTLR | 0.792 ± 0.48 |
| PSKSVCKPCRWSGSWWGER | 0.073 ± 1.6 |
| VLSHVGFKSRMSVTNPGCLD | -0.562 ± 0.81 |
| HFMAI | -1.55 ± 0.8 |

| Substance | amyloid nucleation score |
| --- | --- |
| MVETVYMVEALCRGPEPVVV | -2.09 ± 2.4 |
| RVLNMFYVMNCAIFWVVEAC | 2.49 ± 0.18 |
| TDRTQTYSTFASRGSDVTVT | 0.185 ± 0.35 |
| YRIHKIIKEPAEVTSLLRW | -0.813 ± 0.52 |
| PINLLVLIAGNFYWLWTFGQ | 2.84 ± 0.15 |
| PVGGHMVRLSSMSNSLAFKV | -0.563 ± 0.68 |
| DNNTVITIEQC | 0.286 ± 1 |
| DMKNDYLHVGFWVLIGWHYL | 0.743 ± 0.37 |
| SCIWIWICNHSMFGMETGLG | 4.12 ± 0.1 |
| FWQIAGRGFGRYG | -0.258 ± 0.45 |
| WLGRYQLLWLALGWIITRRG | 1.51 ± 0.47 |
| NNTDYLNCYTAICSSNTVAG | inactive |
| FSSIIG | -0.528 ± 0.4 |
| QAVGSI | 0.031 ± 0.33 |
| LHGPN | 0.705 ± 0.71 |
| LSIFMTITAVESPWVTETVF | -0.803 ± 0.4 |
| ACFEFKLGTFRLGAALNYPG | 1.03 ± 0.31 |
| DHFKKILGLCKSGCRVVERE | 0.759 ± 0.41 |
| VRIILWTMDVIFRLMFTRDQ | 0.41 ± 0.51 |
| CSCYQALKLA | -0.49 ± 0.88 |
| QLDINN | 0.197 ± 0.52 |
| RDYFTN | 0.789 ± 0.9 |
| VGAFVSRVSLLDADGLLLGS | -0.09 ± 0.61 |
| ANLKISSALDVVRHRRKYQY | 0.014 ± 0.54 |
| LYPLMEGDRKKL | 0.981 ± 0.47 |

| Substance | amyloid nucleation score |
| --- | --- |
| YGRGESMLHAGGNWEWTGQE | 0.09 ± 1.1 |
| LVGRRGYFSLVWVPGMSFMR | 0.289 ± 0.45 |
| NKVHSSFSLGGLPEARASDE | 0.966 ± 0.66 |
| FNCRVNFFDSVGY | 3.28 ± 0.16 |
| ALGYIPPRRCMTGSPPSVPR | 0.529 ± 0.84 |
| RFEMNCWSC | -0.802 ± 0.39 |
| DIDFLLNLCESNLIFANM | -0.887 ± 0.87 |
| FLRLAWGFLIMHEIRYAGWS | 0.413 ± 1.2 |
| GTDVQEWLAYCCAIIYAF | 0.332 ± 0.72 |
| LDCYRLRCSLEAIECVISNE | -0.479 ± 0.21 |
| TLAIESGRFWINRLWYVEGE | -1.55 ± 1.3 |
| CLILTRCVSYGRPMTACLVL | 0.16 ± 0.56 |
| DDTIFLMRAIMVFNLICWCV | inactive |
| CVVWAEVRVR | -0.419 ± 0.79 |
| DNDYDLDPVGIRVHLFNQ | inactive |
| SGFIEVYVTIRFEFLYFHTP | 0.131 ± 0.18 |
| SEGWHGPGARVCLVFKNSRV | 0.286 ± 0.61 |
| RLKLTGFMGLSILERVTLCS | -0.396 ± 0.52 |
| RSLFFV | -0.867 ± 0.86 |
| GLYPKYNVGLNN | -0.376 ± 0.56 |
| NVAPSQSFPSLYCSE | inactive |
| LCSLTGLGYAMHVYVSLDVQ | 0.086 ± 0.5 |
| FVSIRCVKYASYISHSHGLV | inactive |
| YNVQVLQVGGRLCRNKCSSC | 7.825 ± 0.061 |
| MLFLARRILSEYRFMPTWVG | inactive |

| Substance | amyloid nucleation score |
| --- | --- |
| VRNNNFAYVNSVTDGVRYAR | inactive |
| CPITWNFLCGIVLIEYYRVV | 7.04 ± 0.087 |
| RAVGDM | -0.241 ± 0.52 |
| RWTVLRIWIYEVQKIAARRS | 0.098 ± 0.44 |
| MYASELSLKPATYSWK | -0.646 ± 0.42 |
| FWTKSGSEEIITMVSTVRWR | -0.749 ± 1.1 |
| ISLKG | 0.655 ± 0.59 |
| AGSFFSYGQFVKFTVLYHSE | -0.053 ± 0.6 |
| TLTPTILILFNFIT | 4.68 ± 0.052 |
| KGFVDNYVTVIVVWT | 1.64 ± 0.18 |
| GLECD | 0.469 ± 0.43 |
| QSDKCCLMYGECVHVVC | 2.83 ± 0.069 |
| TFYLEYLVLFGDCDADSFSW | -0.361 ± 0.63 |
| SQVGALFDVPQSVNDSFKNM | 0.399 ± 0.57 |
| FGVSVLCSEWGTPRFVCWVN | -0.6 ± 0.43 |
| LWLIPRWYDLTEMECFDMYN | 0.477 ± 0.45 |
| YYPNKLFEYSKWNHAAGRVR | 0.085 ± 0.64 |
| SFVWLR | 2.67 ± 0.37 |
| GRMGVSSWAGSQRVLIGENL | 1.47 ± 0.3 |
| FTNPRINMSRFSLSFCPARY | 2.1 ± 0.25 |
| YEVIHICTNLEPIVRNCMGG | 7.024 ± 0.066 |
| VDNIYAGVELLFSCKM | -0.331 ± 0.28 |
| RFCRSIAFA | 0.237 ± 0.32 |
| RKNFLGIGQKLGSSSDWGG | -0.899 ± 1 |
| HSSNFGRDSNSWLRAVD | -0.3 ± 0.61 |

| Substance | amyloid nucleation score |
| --- | --- |
| VLLVRSNKSKLDRHRDWSGK | 0.466 ± 1.4 |
| KSEDTSRFYTLMMSMYTQRF | 1.76 ± 0.14 |
| MMRTEIARVLCLSLF | 0.077 ± 0.37 |
| DKRKVRFAVMFNWRRELRY | 0.708 ± 0.7 |
| LRWLSRKILLTVRASN | -0.125 ± 0.33 |
| TYVCDMEHSVYCYYVEAQLY | 0.49 ± 0.4 |
| DGLLSIEYMNVYSSS | 0.326 ± 0.77 |
| KLEGSARSGTTSRGSFSECV | 0.254 ± 0.38 |
| TLTVSGAADIITFGSTIVVG | 0.193 ± 1.5 |
| RIGTGSHLWII | -0.083 ± 0.6 |
| VVGVYYSCIYVGAYNLGSIP | 4.77 ± 0.1 |
| ICYSGHERYWLNLGICEGDS | 0.186 ± 0.32 |
| NYIVLFSSRDVCTHNMYKTV | 0.342 ± 0.71 |
| LSLSYPYFTFAHSVEMRESI | 9.039 ± 0.053 |
| NPGIDYNERYWMG | -1.09 ± 1.1 |
| RIISGRLSSMFVNSIKVIMD | 0.889 ± 0.21 |
| SGYTGDDFQLKVEG | -0.307 ± 0.39 |
| CRYYRCSQKLDKLVTFTKKS | 0.722 ± 0.49 |
| VFSCWKAVILIPVQGVLVQR | 0.616 ± 0.41 |
| RGDLSYYCRSNN | -0.5 ± 1.4 |
| AFRYDRVWVGQQLFGQECRP | 0.054 ± 0.46 |
| VACRRTSKGEYYFQSMICDL | inactive |
| DNGVLQNNWVIMYCELHHGV | 5.691 ± 0.052 |
| NTCHKIDSTI | -0.13 ± 0.59 |
| CRSVCGRIS | 0.177 ± 0.77 |

| Substance | amyloid nucleation score |
| --- | --- |
| VKRRVSDTHVSCVKGHGSVC | inactive |
| RFGYFFHLVGAGEGHGKGAC | 0.686 ± 0.59 |
| RIDDSIFLDFWM | -0.214 ± 0.4 |
| QIIHGCSAGLQLT | 0.809 ± 0.47 |
| DSGSHRGW | 0.289 ± 0.28 |
| RVRTPHNWTWGITCTWVFKF | 0.326 ± 0.51 |
| MRYLNFLCHCVVVYVVMSAS | 2.16 ± 0.57 |
| EVMDTLYLLLVCRYFAKCIT | inactive |
| GCRPG | -0.151 ± 0.59 |
| SFSYLIFTTVLLVWW | 0.549 ± 0.34 |
| FLAVIGAPNRCDFGQSMLRM | 3.51 ± 0.081 |
| FENDWNLINLLGF | 1.49 ± 0.55 |
| PATMDLIVVPWITVLKEIN | -0.451 ± 0.89 |
| KMLSMLTDRSFWLNHWSFFQ | -0.573 ± 1.4 |
| VISSSVWFFATMQDCWVGRQ | 0.509 ± 0.69 |
| NCMLTECPGLHSNLMWSKWG | 1.5 ± 0.25 |
| VSLAAPGCGFGCQRSRGASQ | 0.013 ± 1.1 |
| VIGVGKMLGNNHYPLSDQGL | -0.05 ± 0.26 |
| SHVFAIRT | 0.574 ± 0.77 |
| TLSLNGLNP | inactive |
| GVMPNCKKNLHEPALERFNT | -0.413 ± 0.61 |
| QWCDKVFL | -0.687 ± 0.4 |
| WYASRTTSIEYTKVYKCGGP | 0.599 ± 0.43 |
| ETLSSFI | 0.032 ± 0.28 |
| CYMYFWNRVDFT | 0.581 ± 0.17 |

| Substance | amyloid nucleation score |
| --- | --- |
| SDYTLEGLIVFPCCVLLHVR | 0.381 ± 0.39 |
| LYHWYLRR | inactive |
| RLFVVEELESWGCFNWASIM | -1.7 ± 2.4 |
| GFLCQSRVLAML | inactive |
| HRCRREYSQSSGSWDESIEN | 1.05 ± 0.14 |
| LRRIKCYTFMIAGSILVVGT | inactive |
| GASFVGTGKWVLTGWKTRRF | 0.124 ± 0.97 |
| ICIREPTNESLAQLSDGVIR | 2.06 ± 0.6 |
| VACNIGHSYVNYYCRGIILC | 0.586 ± 0.4 |
| HFGKRHSYRYLDDTCAQNLY | -0.811 ± 0.63 |
| DRRFRIITHLANSLIWNKWQ | 0.076 ± 0.49 |
| FGVNCNYCLILVQCMC | 2.35 ± 0.52 |
| KKLNSCF | 0.533 ± 0.63 |
| MVDTYRYVIISVYVMLPYYN | 1.14 ± 0.97 |
| AVYFSSFR | 0.522 ± 0.33 |
| GSGSYRGTRLECLCFW | 0.025 ± 1.1 |
| LLKRRTREIAALYRHSSNGY | 1.26 ± 0.57 |
| FCVGYRCWMYN | -0.086 ± 0.25 |
| SLWAYNPV | 2.04 ± 0.38 |
| ACPDHMRV | 1.33 ± 0.62 |
| VRKCRVNYGENGFKYRTRTM | 0.739 ± 0.4 |
